According to PMC10943277 (The Journal of Cell Biology, 2024):

Molecular target: T1, Sly1 (wild-type) (S. cerevisiae, UniProt P22213 1-666)
T1 sequence: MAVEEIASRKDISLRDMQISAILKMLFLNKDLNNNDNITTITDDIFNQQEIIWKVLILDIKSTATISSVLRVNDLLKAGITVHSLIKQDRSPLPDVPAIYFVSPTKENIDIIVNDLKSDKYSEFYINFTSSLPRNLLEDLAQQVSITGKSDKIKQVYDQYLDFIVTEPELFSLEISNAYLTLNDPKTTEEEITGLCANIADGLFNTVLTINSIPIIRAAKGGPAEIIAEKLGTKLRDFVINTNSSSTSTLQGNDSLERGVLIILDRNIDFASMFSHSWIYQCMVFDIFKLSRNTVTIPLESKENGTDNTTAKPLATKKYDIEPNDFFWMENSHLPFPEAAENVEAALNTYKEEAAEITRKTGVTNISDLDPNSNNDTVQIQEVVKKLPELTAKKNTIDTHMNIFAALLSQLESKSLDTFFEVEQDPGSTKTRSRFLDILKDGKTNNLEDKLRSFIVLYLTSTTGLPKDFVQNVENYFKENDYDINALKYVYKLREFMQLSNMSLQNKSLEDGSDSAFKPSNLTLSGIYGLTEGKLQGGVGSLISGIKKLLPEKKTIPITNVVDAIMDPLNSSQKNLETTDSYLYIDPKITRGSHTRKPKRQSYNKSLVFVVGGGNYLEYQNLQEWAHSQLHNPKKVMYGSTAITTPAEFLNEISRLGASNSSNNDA
Assay: pull-down

B1: GST-Sed5 cytoplasmic domain (domain or fragment, S. cerevisiae, UniProt Q01590 1-319, looked up)
chain: MNIKDRTSEFQQSVLSYKKRNKNFREQQRERLQEKESENFANNTTGNGKSVSEFQKKASGIAHEISSTAQLLSKLAVLAKRKPMFNDNPVEIAELSFLIKRKIYAIEQSLVQLSQLKKTDVNGNTSNQSSKQPSAVQHSKNVVNLLNTQMKNISGSFKDVLEERQRLEMANKDRWQKLTTDTGHAPADDQTQSNHAADLTTYNNSNPFMTSLLDESSEKNNNSSNQGELSFPQNDSQLMLMEEGQLSNNVYLQERNRAVETIESTIQEVGNLFQQLASMVQEQGEVIQRIDANVDDIDLNISGAQRELLKYFDRIKSNR
B1: binds.
